Key:
[1] = target: HLA-A*24 with C-terminal His tag (A*24-His Tg) (human); assay: SPR
[2] = target: HLA-A*33 with C-terminal His tag (A*33-His Tg) (human); assay: SPR

**Q.** What does the source list for “Toxoplasma antigenic peptide SAG2C, wild type”?
**A.** SPR response at 200 µM [1]: 15 RU; SPR response at 200 µM [2]: 150 RU
